The text below walks through data of US20250297255A1 (ARSENAL BIOSCIENCES, published 2025).

First the molecules themselves.
B1: TMPRSS4 Ab43 scFv (VH-VL) (scFv)
scFv: QVQLVQSGAEVKKPGASVKVSCKASGYTFIGYYMHWVRQAPGQGLEWMGRINPNSGETNYAQKFQGRVTMTRDTSTSTVYMELSSLRSEDTAVYYCARVRVRGVIHPGFDPWGQGTLVTVSSGGGGSGGGGSGGGGSDIQMTQSPSSLSASVGDRVTITCQASQDISNYLNWYQQKPGKAPKLLIYAASSLQSGVPSRFSGSGSGTDFTLTISSLQPEDFATYYCQQSYSTPVTFGPGTKVDIK
notes: on monoclonal phage in the screen
B2: TMPRSS4 Ab6 scFv (VH-VL) (scFv)
scFv: QVQLVQSGAEVKKPGASVKVSCKASGYTFTSYYMHWVRQAPGQGLEWLGIINPSDYTTSYAQKFQGRVTMTRDTSTSTVYMELSSLRSEDTAVYYCARVASSSWYPGDENWYFDLWGRGTLVTVSSGGGGSGSGGGGSGGGGSDIVMTQSPDSLAVSLGERATINCKSSQSVLYSSNNKNYLAWYQQKPGQPPKLLIYWASTRESGVPDRFSGSGSGTDFTLTISSLQAEDVAIYYCQQYYAIPWTFGQGTKVEIK
notes: as for B1
B3: TMPRSS4 Ab39 scFv (VH-VL) (scFv)
scFv: QVQLVQSGAEVKKPGASVKVSCKASGGSFSGYAVSWVRQAPGQGLEWLGVINPSDSWTAFAQKFQGRVTMTRDTSTSTVYMELSSLRSEDTAVYYCAREREDDAFDIWGQGTTVTVSSGGGGSGGGGSGGGGSDIQMTQSPSSLSASVGDRVTITCRASQGIRNWLAWYQQKPGKAPKLLIYRASTLQSGVPSRFSGSGSGTDFTLTISSLQPEDFATYYCQQSYTTPFTFGQGTKLEIK
notes: as for B1
B4: TMPRSS4 Ab50 scFv (VH-VL) (scFv)
scFv: QVQLVQSGAEVKKPGASVKVSCKASGYTFTGYYMHWVRQAPGQGLEWMGWINPNSGGTHYAQKFQGRVTMTRDTSTSTVYMELSSLRSEDTAVYYCARVRIGWLQSPPLYWGQGTLVTVSSGGGGSGGGGSGGGGSDIQMTQSPSSLSASVGDRVTITCRASQGISNYLAWYQQKPGKAPKLLIYATSRLQSGVPSRFSGSGSGTDFTLTISSLQPEDFATYYCQQSYKTPLTFGGGTKVEIK
notes: as for B1
B5: TMPRSS4 Ab54 scFv (VH-VL) (scFv)
scFv: QVQLVQSGAEVKKPGASVKVSCKASGYTFTSYYMQWVRQAPGQGLEWMGWMNPNSGNTGYAQKFQGRVTMTRDTSTSTVYMELSSLRSEDTAVYYCARVRIGWLQSPPLYWGQGTLVTVSSGGGGSGGGGSGGGGSDIQMTQSPSSLSASVGDRVTITCRASQGISNYLAWYQQKPGKAPKLLIYAASSLQSGVPSRFSGSGSGTDFTLTISSLQPEDFATYYCQQSYSIPFTFGPGTKVDIK
notes: as for B1
B6: TMPRSS4 Ab45 scFv (VH-VL) (scFv)
scFv: QVQLVQSGAEVKKPGASVKVSCKASGYTFSRWYMHWVRQAPGQGLEWMGRINPNSGGTNYAQKFQGRVTMTRDTSTSTVYMELSSLRSEDTAVYYCARVGGYGWFDPWGQGTLVTVSSGGGGSGGGGSGGGGSDIQMTQSPSSLSASVGDRVTITCQATQDIRNYLNWYQQKPGKAPKLLIYATSSLQSGVPSRFSGSGSGTDFTLTISSLQPEDFATYYCQQSYSPPYTFGQGTKLEIK
notes: as for B1
B7: TMPRSS4 Ab44 scFv (VH-VL) (scFv)
scFv: QVQLVQSGAEVKKPGASVKVSCKASGYTFRNYYIHWVRQAPGQGLEWMGRINPNSGGTNYAQKFQGRVTMTRDTSTSTVYMELSSLRSEDTAVYYCARARIAVAVSGFGYWGQGTLVTVSSGGGGSGGGGSGGGGSDIQMTQSPSSLSASVGDRVTITCQASQDISNYLNWYQQKPGKAPKLLIYAASSLHSGVPSRFSGSGSGTDFTLTISSLQPEDFATYYCQESSSFPYTFGPGTKVDIK
notes: as for B1
B8: TMPRSS4 Ab37 scFv (VH-VL) (scFv)
scFv: EVQLLESGGGLVQPGGSLRLSCAASGFTFSSYAMHWVRQAPGKGLEWVSYISSSGSTVYYADSVKGRFTISRDNSKNTLYLQMNSLRAEDTAVYYCARVSNVTPRSGFGYWGQGTLVTVSSGGGGSGGGGSGGGGSDIQMTQSPSSLSASVGDRVTITCRASQSISRYLNWYQQKPGKAPKLLIYSASTLQSGVPSRFSGSGSGTDFTLTISSLQPEDFATYYCQQAHSFPPSFGQGTKLEIK
notes: as for B1
B9: TMPRSS4 Ab52 scFv (VH-VL) (scFv)
scFv: QVQLVQSGAEVKKPGASVKVSCKASGYTFTRYYIHWVRQAPGQGLEWMGWMNPNSGNTGFAQKLQGRVTMTRDTSTSTVYMELSSLRSEDTAVYYCARGPFPRGRLDLWGQGTLVTVSSGGGGSGGGGSGGGGSDIQMTQSPSSLSASVGDRVTITCRASQGISRWLGWYQQKPGKAPKLLIYGASNLQTGVPSRFSGSGSGTDFTLTISSLQPEDFATYYCQQSYSSPRTFGQGTKVEIK
notes: as for B1
B10: TMPRSS4 Ab59 scFv (VH-VL) (scFv)
scFv: QVQLVQSGAEVKKPGASVKVSCKASGGTFSSYTLSWVRQAPGQGLEWMGWIHPKSGVTKNAQKFQGRVTMTRDTSTSTVYMELSSLRSEDTAVYYCARGWVYGRMDAWGQGTTVTVSSGGGGSGGGGSGGGGSEIVMTQSPATLSVSPGERATLSCRASQSVSSNYLAWYQQKPGQAPRLLIYGASTRATGIPARFSGSGSGTEFTLTISSLQSEDFAVYYCQQYGTLPYTFGQGTKVEIK
notes: as for B1
B11: TMPRSS4 Ab4 scFv (VH-VL) (scFv)
scFv: QVQLVQSGAEVKKPGASVKVSCKASGYFFTTYYLHWVRQAPGQGLEWMGVINPNSRLTSYAESFQGRVTMTRDTSTSTVYMELSSLRSEDTAVYYCEREMFPSSYGIDVWGQGTTVTVSSGGGGSGSGGGGSGGGGSDIVMTQSPLSLPVTPGEPASISCRSSQSLLHSNGYNYLDWYLQKPGQSPQLLIYAASTLQSGVPDRFSGSGSGTDFTLKISRVEAEDVGVYYCMQGTHWPPTFGQGTKLEIK
notes: as for B1
B12: TMPRSS4 Ab5 scFv (VH-VL) (scFv)
scFv: QVQLVQSGAEVKKPGSSVKVSCKASGYTFTSYYMHWVRQAPGQGLEWMGRIIPILGATDYAQKFQGRVTITADESTSTAYMELSSLRSEDTAVYYCARAGYSSIAARPAFWGQGTLVTVSSGGGGSGSGGGGSGGGGSEIVMTQSPATLSVSPGERATLSCRASQSVSSNLAWYQQKPGQAPRLLIYGASTRATGIPARFSGSGSGTEFTLTISSLQSEDFAVYYCQQYYSPFPLTFGGGTKVEIK
notes: as for B1
B13: TMPRSS4 Ab42 scFv (VH-VL) (scFv)
scFv: QVQLVQSGAEVKKPGASVKVSCKASGYSFTSHYMHWVRQAPGQGLEWMGWMNPNSGNTGYAQKFQGRVTMTRDTSTSTVYMELSSLRSEDTAVYYCARLGQQLDYWGQGTLVTVSSGGGGSGGGGSGGGGSDIQMTQSPSSLSASVGDRVTITCRASQSIRNYLNWYQQKPGKAPKLLIYEASRLQSGVPSRFSGSGSGTDFTLTISSLQPEDFATYYCQQSYSAPPTFGPGTKVDIK
notes: as for B1
B14: TMPRSS4 Ab48 scFv (VH-VL) (scFv)
scFv: QVQLVQSGAEVKKPGASVKVSCKASGYTFTGYYLHWVRQAPGQGLEWMGWISAYNGNTNYAQNLQGRVTMTRDTSTSTVYMELSSLRSEDTAVYYCARHSYSGSYSTLPYYGMDVWGQGTTVTVSSGGGGSGGGGSGGGGSDIQMTQSPSSLSASVGDRVTITCRASQGISNYLAWYQQKPGKAPKLLIYTASTLFPGVPSRFSGSGSGTDFTLTISSLQPEDFATYYCQQSYSIPLTFGGGTKVEIK
notes: as for B1
B15: TMPRSS4 Ab53 scFv (VH-VL) (scFv)
scFv: QVQLVQSGAEVKKPGASVKVSCKASGYTFTRYYMHWVRQAPGQGLEWMGIINPTGGSTSYAQKFQGRVTMTRDTSTSTVYMELSSLRSEDTAVYYCARGRTWIQSSLGYWGQGTLVTVSSGGGGSGGGGSGGGGSDIQMTQSPSSLSASVGDRVTITCRASRSINRWLAWYQQKPGKAPKLLIYGASTLQSGVPSRFSGSGSGTDFTLTISSLQPEDFATYYCQQSYSTPTFGGGTKVEIK
notes: as for B1
B16: TMPRSS4 Ab40 scFv (VH-VL) (scFv)
scFv: QVQLVQSGAEVKKPGASVKVSCKASGGTFSSYAISWVRQAPGQGLEWMGIINPRGGSTNYAQKFQGRVTMTRDTSTSTVYMELSSLRSEDTAVYYCAREGSSWYYDAFDIWGQGTMVTVSSGGGGSGGGGSGGGGSDIQMTQSPSSLSASVGDRVTITCRASQSISSYLNWYQQKPGKAPKLLIYAAYNLQSGVPSRFSGSGSGTDFTLTISSLQPEDFATYYCQQSYSIPFTFGGGTKVEIK
notes: as for B1
B17: TMPRSS4 Ab38 scFv (VH-VL) (scFv)
scFv: QVQLAQSGAEVKKPGASVKVSCKASGYTFTRHYIQWVRQAPGQGLEWMGWINPNSGNTGYAQKFQGRVTMTRDTSTSTVYMELSSLRSEDTAVYYCARGRQWLRGEYFQHWGQGTLVTVSSGGGGSGGGGSGGGGSDIQMTQSPSSLSASVGDRVTITCQASQDISRYLNWYQQKPGKAPKLLIYGASNLLSGVPSRFSGSGSGTDFTLTISSLQPEDFATYYCQQTHTTPYTFGQGTRLEIK
notes: as for B1
B18: TMPRSS4 Ab41 scFv (VH-VL) (scFv)
scFv: QVQLVQSGAEVKKPGASVKVSCKASGGTFSSYAISWVRQAPGQGLEWMGWMNPNSGDTHYAQKFQGRVTMTRDTSTSTVYMELSSLRSEDTAVYYCAREGSSWYYDAFDIWGQGTLVTVSSGGGGSGGGGSGGGGSDIQMTQSPSSLSASVGDRVTITCRASQSISRWLAWYQQKPGKAPKLLIYAASTLQTGVPSRFSGSGSGTDFTLTISSLQPEDFATYYCLQHSSYPFTFGQGTKVEIK
notes: as for B1
B19: TMPRSS4 Ab49 scFv (VH-VL) (scFv)
scFv: QVQLVQSGAEVKKPGASVKVSCKASGYTFTGYYMHWVRQAPGQGLEWMGRINPNSGGTNYAQKFQGRVTMTRDTSTSTVYMELSSLRSEDTAVYYCARERAGYSSGQFDYWGQGTLVTVSSGGGGSGGGGSGGGGSDIQMTQSPSSLSASVGDRVTITCRASQSISNWLAWYQQKPGKAPKLLIYAASTLQNGVPSRFSGSGSGTDFTLTISSLQPEDFATYYCQQSYTFPITFGQGTKVEIK
notes: as for B1
B20: TMPRSS4 Ab36 scFv (VH-VL) (scFv)
scFv: EVQLLESGGGLVQPGGSLRLSCAASGFTFSSRAMSWVRQAPGKGLEWVSRINYDGSATTYADSVKGRFTISRDNSKNTLYLQMNSLRAEDTAVYYCARGITIFGVFDYWGQGTLVTVSSGGGGSGGGGSGGGGSDIQMTQSPSSLSASVGDRVTITCRASQSISTWLAWYQQKPGKAPKLLIYRASNLQSGVPSRFSGSGSGTDFTLTISSLQPEDFATYYCQQSYSTPLTFGGGTKVEIK
notes: as for B1

T1 sequence (Q9NRS4 whole entry): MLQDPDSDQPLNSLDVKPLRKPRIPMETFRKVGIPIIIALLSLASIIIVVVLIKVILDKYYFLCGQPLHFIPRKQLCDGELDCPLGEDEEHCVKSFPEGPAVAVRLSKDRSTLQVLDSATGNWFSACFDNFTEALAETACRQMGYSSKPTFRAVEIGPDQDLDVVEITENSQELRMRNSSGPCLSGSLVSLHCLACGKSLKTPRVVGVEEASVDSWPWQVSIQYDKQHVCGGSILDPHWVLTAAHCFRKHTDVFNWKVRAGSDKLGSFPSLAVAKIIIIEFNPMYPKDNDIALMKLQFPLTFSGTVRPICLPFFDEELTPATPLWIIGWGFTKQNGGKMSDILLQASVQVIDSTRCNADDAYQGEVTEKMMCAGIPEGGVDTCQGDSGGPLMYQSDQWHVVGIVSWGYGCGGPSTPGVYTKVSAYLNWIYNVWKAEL

The experiment addresses T1, Human TMPRSS4 (Transmembrane protease, serine 4), wild type full length (human, UniProt Q9NRS4 1-437).
T1 construct: Type II membrane protein over-expressed on HEK293T cells (also endogenous on H1975 and LUDLU-1 cells); also called TMPRSS4 WT; HEK293T-TMPRSS4
In words: flow cytometry, monoclonal phage on HEK293T-TMPRSS4 cells.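 Also: bound phage detected with a PE-labelled mouse anti-M13 monoclonal antibody, read by flow cytometry.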
Regarding B1, the binding result is “binds”.

Consider B2, for which the binding result is recorded as “binds”.

For the molecule B3, the binding result was “binds”. For B4, the binding result was “binds”. For the molecule B5, the binding result is listed as “binds”. With B6, the binding result is “binds”. Regarding B7, the binding result is “binds”.

Turning to B8, the binding result is “binds”. In the case of B9 it was “binds”; in that of B10, “binds”; in that of B11, “binds”. Regarding B12, the binding result is given as “binds”.

For B13, the binding result is reported as “binds”. To B14 belongs “binds”. Consider B15, for which the binding result is reported as “binds”. Turning to B16, the binding result was “binds”.

Regarding B17, the binding result was “binds”. As to B18, the binding result is reported as “binds”. In the case of B19 it was “binds”; in that of B20, “binds”.
